± gives the standard deviation of the averaged measurements.
B1: library; a variant is named by its letters at N, in order (parent)
chain: GCUGUCACCGGUGCUUGGUACGUUAUAUUCAGCCGGUCUGAUGAGUCUNNNNNNAGACGAAACAGC

Experiments:
[1] = variants of: B1; assay: normalized RNA/DNA level without ligand (relative to sTRSVctl = 100) (log10 (% of sTRSVctl)); HEK293T overexpressing SLC46A1; higher = less ribozyme self-cleavage, higher mRNA level; conditions: without (6R,S)-folinic acid; ligand present: no
How it was run: (§1)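 Total RNA, extracted with EDTA 72 h after HEK293T cells were transfected with 4 µg per 6-well well of reporter-linked ribozyme switch library plasmids, was reverse-transcribed, amplified, barcoded and sequenced. Ligand, if used, was added 1 h before transfection. RNA level was derived from RNA reads divided by DNA reads and normalized to a spiked-in non-cleaving sequence or to the top sequences. This was multiplied by 100 and log10-transformed, with the top set of 25 sequences and a ≥100 DNA read minimum.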

[2] = variants of: B1; assay: normalized RNA/DNA level with ligand (relative to sTRSVctl = 100) (log10 (% of sTRSVctl)); HEK293T overexpressing SLC46A1; ligand concentration (+) RNA-Seq: 6 mM; higher = less ribozyme self-cleavage, higher mRNA level; conditions: with (6R,S)-folinic acid; ligand present: yes
How it was run: as §1

Variant | normalized RNA/DNA level without ligand (log10) [1] | normalized RNA/DNA level with ligand (log10) [2]
AUAUAA | 1.956 ± 0.0059 | 1.96 ± 0.032
AUCAUG | 1.989 ± 0.009 | 2.005 ± 0.019
AUCAUA | 1.98 ± 0.02 | 1.99 ± 0.046
AUCAUU | 2.05 ± 0.024 | 2.03 ± 0.023
AUCAUC | 2.01 ± 0.022 | 1.98 ± 0.031
CUCGGC | 2.05 ± 0.027 | 2.04 ± 0.034
CUCGGA | 2.044 ± 0.0022 | 2.0131 ± 0.00036
CUCGGG | 2.0341 ± 0.00097 | 2.07 ± 0.046
CUCGGU | 2.03 ± 0.034 | 2.02 ± 0.028
AUCGGC | 2.054 ± 0.013 | 2.02 ± 0.043
AUCGGG | 1.923 ± 0.017 | 2.05 ± 0.047
AUCGGU | 1.94 ± 0.02 | 1.96 ± 0.032
UUAUUA | 1.975 ± 0.0052 | 1.99 ± 0.02
UUAUUC | 2.012 ± 0.0098 | 2.02 ± 0.079
CUCAUA | 1.99 ± 0.021 | 1.96 ± 0.055
CUCAUU | 2.08 ± 0.03 | 2.05 ± 0.026
CUCAUG | 2.003 ± 0.019 | 1.98 ± 0.023
UUAUCG | 1.885 ± 0.0047 | 1.97 ± 0.041
UUAUCC | 2.04 ± 0.016 | 2.01 ± 0.032
UUAUCA | 1.999 ± 0.019 | 2.01 ± 0.021
UUAGUU | 1.972 ± 0.0056 | 1.97 ± 0.052
UUAGUC | 2.031 ± 0.0018 | 2.024 ± 0.0089
UUAGUA | 1.9501 ± 0.0015 | 1.98 ± 0.026
UUAGUG | 1.759 ± 0.012 | 1.962 ± 0.012
UUCGCG | 1.91 ± 0.029 | 1.968 ± 0.0034
UUCGCA | 1.988 ± 0.016 | 2 ± 0.048
UUCGCU | 1.981 ± 0.014 | 1.99 ± 0.026
UUCGCC | 2.017 ± 0.0095 | 2.01 ± 0.025
GUAGGC | 1.881 ± 0.011 | 2.0344 ± 0.00079
